Source: PMC7159909

Assay: Co-IP and immunoblot, WSN-infected A549
Conditions: glycan lost; control: si-ctrl

B1: interferon regulatory factor-5 (IRF5): si-OGT (protein)
parent chain: MNQSIPVAPTPPRRVRLKPWLVAQVNSCQYPGLQWVNGEKKLFCIPWRHATRHGPSQDGDNTIFKAWAKETGKYTEGVDEADPAKWKANLRCALNKSRDFRLIYDGPRDMPPQPYKIYEVCSNGPAPTDSQPPEDYSFGAGEEEEEEEELQRMLPSLSLTEDVKWPPTLQPPTLQPPVVLGPPAPDPSPLAPPPGNPAGFRELLSEVLEPGPLPASLPPAGEQLLPDLLISPHMLPLTDLEIKFQYRGRPPRALTISNPHGCRLFYSQLEATQEQVELFGPISLEQVRFPSPEDIPSDKQRFYTNQLLDVLDRGLILQLQGQDLYAIRLCQCKVFWSGPCASAHDSCPNPIQREVKTKLFSLEHFLNELILFQKGQTNTPPPFEIFFCFGEEWPDRKPREKKLITVQVVPVAARLLLEMFSGELSWSADSIRLQISNPDLKDRMVEQFKELHHIWQSQQRLQPVAQAPPGAGLGVGQGPWPMHPAGMQ
- other: ubiquitination: decreases
